Positions count from the first letter of the chain named. Numbers in names are those of the source.
Molecular target: the molecule itself
Test: ultracentrifugation of heated protein and dot blot of the pellet with A11 and OC antibodies; 7 uM protein heated at 37 °C for 1 h, then 14 h at 25 °C; 1,00,000 x g for 60 min (2 h for OC)

B1: BAP1 catalytic domain (1–240), wild type (domain or fragment, human, UniProt Q92560 1-240, looked up)
chain: MNKGWLELESDPGLFTLLVEDFGVKGVQVEEIYDLQSKCQGPVYGFIFLFKWIEERRSRRKVSTLVDDTSVIDDDIVNNMFFAHQLIPNSCATHALLSVLLNCSSVDLGPTLSRMKDFTKGFSPESKGYAIGNAPELAKAHNSHARPEPRHLPEKQNGLSAVRTMEAFHFVSYVPITGRLFELDGLKVYPIDHGPWGEDEEWTDKARRVIMERIGLATAGEPYHDIRFNLMAVVPDRRIK
notes: BRCA1 associated protein 1 (BAP1), human, N-terminal catalytic (UCH) domain, residues 1-240, subcloned into pGEX-6P-1 from Flag-HA-BAP1; also called WT 240; BAP1 (1–240); source: E. coli Rosetta 2, purified (standard GST purification protocol)
- binding result: binds

B2: BAP1 catalytic domain (1–240) F81V (domain or fragment, human, UniProt Q92560 1-240, looked up)
chain: B1 chain with F81V
notes: BAP1, human, catalytic domain residues 1-240 with the cancer-associated mutation F81V; source: E. coli Rosetta 2, purified (standard GST purification protocol)
- binding result: binds

From PMC4683529, “Cancer associated missense mutations in BAP1 catalytic domain induce amyloidogenic aggregation: A new insight in enzymatic inactivation” (Scientific Reports, 2015)
